From the supplement of paper PMC9233669
This sample holds only a part of the variants without activity.

Key:
[1] = tested on: biotinyl-Phe-oxazolone; assay: self-aminoacylation, catalytic enhancement (BFO) (fold over background); higher = more active; k-Seq, kA / k0A0; sequences stand for … in GGGAAUGGAUCCACAUCUACGAAUUC…UUCACUGCAGACUUGACGAAGCUG
Procedure, shortened: (§1)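 Mutagenized RNA pools (0.43 μM; 21-nt variable region) were treated with 2–1250 μM of each biotinyl-aminoacyl-oxazolone. Conditions were 50 μL HEPES/NaCl/KCl/MgCl2/CaCl2 buffer, 5% acetonitrile, pH 6.9–7.0, room temperature, 90 minutes. Catalytic enhancement, the median kA relative to the uncatalyzed rate, was derived from streptavidin capture, qPCR and Illumina sequencing.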

[2] = tested on: biotinyl-Ile-oxazolone; assay: self-aminoacylation, catalytic enhancement (BIO) (fold over background); higher = more active; k-Seq, kA / k0A0; sequences stand for … in GGGAAUGGAUCCACAUCUACGAAUUC…UUCACUGCAGACUUGACGAAGCUG
Procedure, shortened: as §1

[3] = tested on: biotinyl-Met-oxazolone; assay: self-aminoacylation, catalytic enhancement (BMO) (fold over background); higher = more active; k-Seq, kA / k0A0; sequences stand for … in GGGAAUGGAUCCACAUCUACGAAUUC…UUCACUGCAGACUUGACGAAGCUG
Procedure, shortened: as §1

[4] = tested on: biotinyl-Val-oxazolone; assay: self-aminoacylation, catalytic enhancement (BVO) (fold over background); higher = more active; k-Seq, kA / k0A0; sequences stand for … in GGGAAUGGAUCCACAUCUACGAAUUC…UUCACUGCAGACUUGACGAAGCUG
Procedure, shortened: as §1

[5] = tested on: biotinyl-Leu-oxazolone; assay: self-aminoacylation, catalytic enhancement (BLO) (fold over background); higher = more active; k-Seq, kA / k0A0; sequences stand for … in GGGAAUGGAUCCACAUCUACGAAUUC…UUCACUGCAGACUUGACGAAGCUG
Procedure, shortened: as §1

[6] = tested on: biotinyl-Trp-oxazolone; assay: self-aminoacylation, catalytic enhancement (BWO) (fold over background); higher = more active; k-Seq, kA / k0A0; sequences stand for … in GGGAAUGGAUCCACAUCUACGAAUUC…UUCACUGCAGACUUGACGAAGCUG
Procedure, shortened: as §1

Sequence | self-aminoacylation [1] | self-aminoacylation [2] | self-aminoacylation [3] | self-aminoacylation [4] | self-aminoacylation [5] | self-aminoacylation [6]
UCACACUUCAACCAAUCGGUC [Fam1B.1 aminoacylation ribozyme variant] | 54.2 | 1.45 | 1.71 | 1.75 | 2.44 | 37.1
UCACACUUCAAGCAAUCGGAC [Fam1B.1 aminoacylation ribozyme variant] | 1.56 | 0.844 | 0.732 | 0.821 | 0.598 | 0.994
UCACACUUCAAUCAAUCGGUC [Fam1B.1 aminoacylation ribozyme variant] | 35.5 | 1.11 | 1.12 | 1.08 | 1.49 | 21.3
UCACACUUCCAGCAAUCGGUC [Fam1B.1 aminoacylation ribozyme variant] | 1.01 | 1.19 | 1.14 | 1.24 | 1.02 | 0.854
UCACACUUGAAGCAAUCGGUC [Fam1B.1 aminoacylation ribozyme variant] | 0.541 | 0.744 | 0.762 | 0.774 | 0.751 | 0.486
UCACACUUUAAGCAAUCGGUC [Fam1B.1 aminoacylation ribozyme variant] | 0.841 | 0.869 | 0.694 | 0.857 | 0.791 | 0.764
UCACAGUUCAAGCAAUCGGUC [Fam1B.1 aminoacylation ribozyme variant] | 4.16 | 1.05 | 1.01 | 0.999 | 1.16 | 3.12
UCUACCCUGGUCAUCGAGUGA [Fam2.1 aminoacylation ribozyme variant] | 14.6 | 5.18 | 10.4 | 5.79 | 9.36 | 12.6
UGACUUCAAACAAUCGGUCUG [Fam1A.1 aminoacylation ribozyme variant] | 96.8 | 1.73 | 2.05 | 1.73 | 2.53 | 39.2
UGGUUUGCUAAUAGUCGCAAG [Fam3.1 aminoacylation ribozyme variant] | 8.93 | 1.81 | 1.88 | 1.51 | 1.58 | 4.47
UGUACCCUGGUCAUCGAGUGA [Fam2.1 aminoacylation ribozyme variant] | 10.3 | 4.06 | 5.72 | 3.66 | 7.2 | 8.02
UUAACCCUGGUCAUCGAGUGA [Fam2.1 aminoacylation ribozyme variant] | 20.2 | 5.63 | 11.7 | 5.9 | 12 | 11.5
UUACACUUCAAGCAAUCGGUC [Fam1B.1 aminoacylation ribozyme variant] | 30.4 | 1.25 | 1.26 | 1.14 | 1.5 | 15.7
UUACUUCAAAAAAUCGGUCUG [Fam1A.1 aminoacylation ribozyme variant] | 7.17 | 1.44 | 1.22 | 0.984 | 1.29 | 5.65
UUACUUCAAACAAUCGGUCUC [Fam1A.1 aminoacylation ribozyme variant] | 31.6 | 1.2 | 1.17 | 1.04 | 1.4 | 17.2
UUACUUCAAACAAUCGGUCUG [Fam1A.1 aminoacylation ribozyme variant] | 37.4 | 1.3 | 1.29 | 1.22 | 1.69 | 20.7
UUACUUCAAACAAUCUGUCUG [Fam1A.1 aminoacylation ribozyme variant] | 3.15 | 1.45 | 1.42 | 1.35 | 1.38 | 2.09
UUACUUCAAACAAUGGGUCUG [Fam1A.1 aminoacylation ribozyme variant] | 0.83 | 1.05 | 1.03 | 1.05 | 1.06 | 1.23
UUACUUCAAACCAUCGGUCUG [Fam1A.1 aminoacylation ribozyme variant] | 1.23 | 1.09 | 1.06 | 1.03 | 0.847 | 1.02
UUACUUCAAGCAAUCGGUCUG [Fam1A.1 aminoacylation ribozyme variant] | 5.97 | 0.993 | 1.12 | 0.95 | 1.26 | 3.89
UUACUUCACACAAUCGGUCUG [Fam1A.1 aminoacylation ribozyme variant] | 1.66 | 1.27 | 1.06 | 1.28 | 1.17 | 1.03
UUACUUCAGACAAUCGGUCUG [Fam1A.1 aminoacylation ribozyme variant] | 1.73 | 1.14 | 1.11 | 1.12 | 1.3 | 1.12
UUACUUUAAACAAUCGGUCUG [Fam1A.1 aminoacylation ribozyme variant] | 1.4 | 1.11 | 1.38 | 1.11 | 0.878 | 1.25
UUGCUUCAAACAAUCGGUCUG [Fam1A.1 aminoacylation ribozyme variant] | 147 | 2.12 | 2.25 | 1.91 | 3.55 | 53.4
UUUACCCUGGUCAACGAGUGA [Fam2.1 aminoacylation ribozyme variant] | 26.1 | 3 | 5.61 | 3.5 | 5.66 | 8.31

Sequence | self-aminoacylation [1] | self-aminoacylation [2] | self-aminoacylation [3] | self-aminoacylation [4] | self-aminoacylation [5] | self-aminoacylation [6]
UUUACCCUGGUCACCGAGUGA [Fam2.1 aminoacylation ribozyme variant] | 44.3 | 3.3 | 7.62 | 4.12 | 7.47 | 8
UUUACCCUGGUCAUCCAGUGA [Fam2.1 aminoacylation ribozyme variant] | 15.7 | 3.12 | 4.91 | 2.98 | 4.72 | 6.23
UUUACCCUGGUCAUCGAGAGA [Fam2.1 aminoacylation ribozyme variant] | 2.19 | 1.28 | 1.61 | 1.3 | 1.32 | 1.86
UUUACCCUGGUCAUCGAGCGA [Fam2.1 aminoacylation ribozyme variant] | 2.17 | 2.16 | 3.05 | 2.43 | 3.21 | 3.52
UUUACCCUGGUCAUCGAGUGU [Fam2.1 aminoacylation ribozyme variant] | 542 | 22.7 | 82.3 | 26.3 | 71.5 | 75.4
UUUACCCUGGUCAUCGCGUGA [Fam2.1 aminoacylation ribozyme variant] | 128 | 7.82 | 18.9 | 9.57 | 16.9 | 19
UUUACCCUGGUCAUCGUGUGA [Fam2.1 aminoacylation ribozyme variant] | 15.3 | 1.66 | 2.98 | 2.06 | 3.11 | 3.71
UUUACCCUGGUCUUCGAGUGA [Fam2.1 aminoacylation ribozyme variant] | 13.9 | 2.46 | 3.61 | 2.79 | 3.58 | 5.27
UUUACGCUGGUCAUCGAGUGA [Fam2.1 aminoacylation ribozyme variant] | 10.2 | 3.56 | 4.46 | 4.07 | 4.78 | 6.37
UUUACUCUGGUCAUCGAGUGA [Fam2.1 aminoacylation ribozyme variant] | 7.42 | 3.99 | 5.53 | 3.58 | 5.43 | 6.74
UUUCACCUAGGCCAUCGGGUG [Fam2.2 aminoacylation ribozyme variant] | 20.8 | 3.27 | 3.71 | 4 | 4.34 | 4.57
UUUCACCUAGGGCAUCGGGUG [Fam2.2 aminoacylation ribozyme variant] | 26 | 3.17 | 3.15 | 3.9 | 3.49 | 3.56
UUUCACCUAGGUCAUCGAGUG [Fam2.2 aminoacylation ribozyme variant] | 16.4 | 5.72 | 7.16 | 4.45 | 9.37 | 4.82
UUUCACCUAGGUCAUCGGGAG [Fam2.2 aminoacylation ribozyme variant] | 1.4 | 1.68 | 1.73 | 1.35 | 1.82 | 2.02
UUUCACCUAGGUCAUCGGGCG [Fam2.2 aminoacylation ribozyme variant] | 4.77 | 3.06 | 4.77 | 3.19 | 5.21 | 4.57
UUUCACCUAGGUCAUCGGGUA [Fam2.2 aminoacylation ribozyme variant] | 184 | 14.7 | 27.4 | 13.9 | 36.1 | 21.2
UUUCACCUAGGUCAUCUGGUG [Fam2.2 aminoacylation ribozyme variant] | 9.3 | 1.76 | 1.88 | 1.86 | 2.22 | 2.5
UUUCACCUAGGUCCUCGGGUG [Fam2.2 aminoacylation ribozyme variant] | 35.6 | 3.82 | 4.17 | 4.22 | 4.92 | 5.68
UUUCACCUAGGUCUUCGGGUG [Fam2.2 aminoacylation ribozyme variant] | 29 | 4.04 | 4.63 | 4.51 | 5.06 | 5.4
UUUCACCUAGGUGAUCGGGUG [Fam2.2 aminoacylation ribozyme variant] | 24.3 | 3.55 | 3.5 | 3.67 | 4.15 | 5.69
UUUCACCUAGGUUAUCGGGUG [Fam2.2 aminoacylation ribozyme variant] | 19.6 | 2.92 | 3.71 | 2.93 | 3.72 | 4.62
UUUCACGUAGGUCAUCGGGUG [Fam2.2 aminoacylation ribozyme variant] | 32.2 | 2.89 | 4.24 | 4.25 | 3.88 | 4.06
UUUCACUUAGGUCAUCGGGUG [Fam2.2 aminoacylation ribozyme variant] | 46.7 | 4.22 | 6.17 | 4.19 | 6.73 | 6.64
UUUGCCCUGGUCAUCGAGUGA [Fam2.1 aminoacylation ribozyme variant] | 294 | 16.5 | 45.5 | 18.1 | 41 | 46.1
